Article doi:10.1101/2020.12.03.410779 (bioRxiv, 2020)

Target: PDZ domain of mouse SNX27 (mouse, UniProt Q3UHD6 41-134)
Test: ITC

Kd: 700 nM
Binder: QEEWETVM [PTHR_(586-593) cargo peptide]
